Biological target: human FGFR1c + KLB receptor complex on HEK293 iLite FGF21 reporter cells (human, UniProt P11362 22-822; Q86Z14 1-1044)
Test: cell-based or functional assay

Chain of human FGFR1c + KLB receptor complex on HEK293 iLite FGF21 reporter cells (P11362 22-822, chain 1 of 2): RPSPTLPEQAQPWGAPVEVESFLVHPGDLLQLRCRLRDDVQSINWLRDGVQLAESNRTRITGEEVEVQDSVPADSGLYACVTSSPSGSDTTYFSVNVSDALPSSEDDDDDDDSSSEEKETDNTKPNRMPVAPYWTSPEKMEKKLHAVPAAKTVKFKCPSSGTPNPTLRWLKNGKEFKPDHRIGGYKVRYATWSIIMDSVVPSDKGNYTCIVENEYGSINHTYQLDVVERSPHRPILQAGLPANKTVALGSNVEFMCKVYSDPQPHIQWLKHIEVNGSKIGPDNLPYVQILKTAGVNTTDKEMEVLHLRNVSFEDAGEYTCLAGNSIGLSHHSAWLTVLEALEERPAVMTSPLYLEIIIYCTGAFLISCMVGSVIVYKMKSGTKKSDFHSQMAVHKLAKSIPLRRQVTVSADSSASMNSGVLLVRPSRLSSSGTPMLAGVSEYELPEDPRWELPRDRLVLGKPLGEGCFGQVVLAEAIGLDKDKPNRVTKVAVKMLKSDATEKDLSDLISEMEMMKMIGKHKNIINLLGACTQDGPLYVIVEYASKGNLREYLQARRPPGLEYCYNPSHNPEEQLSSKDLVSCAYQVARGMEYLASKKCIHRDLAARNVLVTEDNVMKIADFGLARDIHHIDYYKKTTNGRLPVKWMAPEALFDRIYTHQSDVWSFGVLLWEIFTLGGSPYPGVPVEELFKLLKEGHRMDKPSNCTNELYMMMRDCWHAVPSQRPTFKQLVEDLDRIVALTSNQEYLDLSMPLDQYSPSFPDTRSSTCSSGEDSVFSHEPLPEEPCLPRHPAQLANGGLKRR
Chain of human FGFR1c + KLB receptor complex on HEK293 iLite FGF21 reporter cells (Q86Z14 whole entry, chain 2 of 2): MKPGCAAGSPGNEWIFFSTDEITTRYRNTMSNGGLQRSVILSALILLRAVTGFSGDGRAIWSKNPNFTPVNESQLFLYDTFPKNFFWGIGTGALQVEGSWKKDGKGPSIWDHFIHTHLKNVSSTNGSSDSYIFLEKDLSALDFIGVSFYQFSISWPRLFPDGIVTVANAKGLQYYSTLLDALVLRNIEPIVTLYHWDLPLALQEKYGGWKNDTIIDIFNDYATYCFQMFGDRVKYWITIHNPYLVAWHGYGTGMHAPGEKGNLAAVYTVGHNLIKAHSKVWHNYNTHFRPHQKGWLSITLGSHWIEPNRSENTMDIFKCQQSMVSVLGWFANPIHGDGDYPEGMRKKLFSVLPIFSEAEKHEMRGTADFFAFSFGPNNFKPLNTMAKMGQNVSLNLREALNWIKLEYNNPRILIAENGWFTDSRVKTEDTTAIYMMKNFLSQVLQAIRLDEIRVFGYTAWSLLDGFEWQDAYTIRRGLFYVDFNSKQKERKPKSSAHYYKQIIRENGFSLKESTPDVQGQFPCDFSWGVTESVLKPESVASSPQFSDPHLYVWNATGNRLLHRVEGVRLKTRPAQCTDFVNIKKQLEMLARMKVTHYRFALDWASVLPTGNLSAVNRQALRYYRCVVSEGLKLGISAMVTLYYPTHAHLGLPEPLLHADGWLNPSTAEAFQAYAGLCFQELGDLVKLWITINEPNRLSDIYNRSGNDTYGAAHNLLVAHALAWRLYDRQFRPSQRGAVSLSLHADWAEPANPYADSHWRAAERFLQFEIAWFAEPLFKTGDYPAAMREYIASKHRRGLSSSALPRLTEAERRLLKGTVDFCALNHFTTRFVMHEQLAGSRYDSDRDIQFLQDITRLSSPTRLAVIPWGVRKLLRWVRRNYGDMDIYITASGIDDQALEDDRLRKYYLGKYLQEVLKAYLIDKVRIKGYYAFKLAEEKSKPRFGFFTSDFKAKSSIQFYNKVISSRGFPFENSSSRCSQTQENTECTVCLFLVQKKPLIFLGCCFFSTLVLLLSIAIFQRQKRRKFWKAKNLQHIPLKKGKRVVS

Row | Binder | EC50 [nM] | Emax [%]
1 | Ab0331 (antibody, human IgG4 S228P, lambda) heavy: not shown light: SYVLTQPPSVSVAPGQTARITCGGSNIGSESVHWYQQKPGQAPVLVVYSESDRPSGIPERFSGSNSGNTATLTISRVEAGDEADYYCQVWEGESDHVVFGGGTKLTVLGQPKANPTVTLFPPSSEELQANKATLVCLISDFYPGAVTVAWKADGSPVKAGVETTKPSKQSNNKYAASSYLSLTPEQWKSHRSYSCQVTHEGSTVEKTVAPTECS | 0.04 | 1090
2 | Ab0335 (antibody, human IgG4 S228P, lambda) heavy: not shown light: SYVLTQPPSVSVAPGQTARITCGGSNIGSESVHWYQQKPGQAPVLVVYSASDRPSGIPERFSGSNSGNTATLTISRVEAGDEADYYCQVWEGESDHVVFGGGTKLTVLGQPKANPTVTLFPPSSEELQANKATLVCLISDFYPGAVTVAWKADGSPVKAGVETTKPSKQSNNKYAASSYLSLTPEQWKSHRSYSCQVTHEGSTVEKTVAPTECS | 0.04 | 1220
3 | Ab0398 (antibody, IgG4, V domains shown) VH: QVTLKESGPVLVKPTETLTLTCTVSGFSLNNARVGVSWIRQPPGKALEWLASIWSNDEKSYSTSLKSRLTISKDTSKSQVVLTMTNMDPVDTATYYCARSVVTGGYYYEGMDVWGQGTTVTVSS VL: CYVLTQPPSVSVAPGQTARITCGGNNIGSESVHWYQQKPGQAPVLVVDDSDRPSGIPERFSGSNSGNTATLTISRVEAGDEADYYCQVFDGNCAHVVFGGGTKLTVLG | > 100 | 
4 | Ab0328 (antibody, IgG4, V domains shown) VH: QVTLKESGPVLVKPTETLTLTCTVSGFSLNNARVGVSWIRQPPGKALEWLAHIFSNDEKSYSTSLKSRLTISKDTSKSQVVLTMTNMDPVDTATYYCARSVVTGGYYYEGMDVWGQGTTVTVSS VL: SYVLTQPPSVSVAPGQTARITCGGSNIGSESVHWYQQKPGQAPVLVVYYASDRPSGIPERFSGSNSGNTATLTISRVEAGDEADYYCQVWAGSSDHVVFGGGTKLTVLG | 4.11 | 421
5 | Ab0329 (antibody, IgG4, V domains shown) VH: QVTLKESGPVLVKPTETLTLTCTVSGFSLNNARVGVSWIRQPPGKALEWLAHIFSNDEKSYSTSLKSRLTISKDTSKSQVVLTMTNMDPVDTATYYCARSVVTGGYYYEGMDVWGQGTTVTVSS VL: SYVLTQPPSVSVAPGQTARITCGGSNIGSESVHWYQQKPGQAPVLVVYYSSDRPSGIPERFSGSNSGNTATLTISRVEAGDEADYYCQVWAGSSDHVVFGGGTKLTVLG | 4.59 | 443
6 | Ab0402 (antibody, IgG4, V domains shown) VH: QVTLKESGPVLVKPTETLTLTCTVSGFSLNNARVGVSWIRQPPGKALEWLAWIFSNDEKSYSTSLKSRLTISKDTSKSQVVLTMTNMDPVDTATYYCARSVVTGGYYYEGMDVWGQGTTVTVSS VL: SYVLTQPPSVSVAPGQTARITCGGNNIGSESVHWYQQKPGQAPVLVVDDSDRPSGIPERFSGSNSGNTATLTISRVEAGDEADYYCQVFDGNCACVVFGGGTKLTVLG | > 100 | 
7 | Ab0400 (antibody, IgG4, V domains shown) VH: QVTLKESGPVLVKPTETLTLTCTVSGFSLNNARVGVSWIRQPPGKALEWLASIWSNDEKSYSTSLKSRLTISKDTSKSQVVLTMTNMDPVDTATYYCARSVVTGGYYYEGMDVWGQGTTVTVSS VL: SYVLTQPPSVSVAPGQTARITCGGNNIGSESVHWYQQKPGQAPVLVVDDSDRPSGIPERFSGSNSGNTATLTISRVEAGDEADYYCQVFDGNCACVVFGGGTKLTVLG | > 100 | 
8 | Ab0399 (antibody, IgG4, V domains shown) VH: QVTLKESGPVLVKPTETLTLTCTVSGFSLNNARVGVSWIRQPPGKALEWLAHIWSNDEKSYSTSLKSRLTISKDTSKSQVVLTMTNMDPVDTATYYCARSVVTGGYYYEGMDVWGQGTTVTVSS VL: SYVLTQPPSVSVAPGQTARITCGGNNIGSESVHWYQQKPGQAPVLVVDDSDRPSGIPERFSGSNSGNTATLTISRVEAGDEADYYCQVFDGNCACVVFGGGTKLTVLG | > 100 | 
9 | Ab0401 (antibody, IgG4, V domains shown) VH: QVTLKESGPVLVKPTETLTLTCTVSGFSLNNARVGVSWIRQPPGKALEWLAWIFSNDEKSYSTSLKSRLTISKDTSKSQVVLTMTNMDPVDTATYYCARSVVTGGYYYEGMDVWGQGTTVTVSS VL: SYVLTQPPSVSVAPGQTARITCGGNNIGSESVHWYQQKPGQAPVLVVDDSDRPSGIPERFSGSNSGNTATLTISRVEAGDEADYYCQVFDGNSAHVVFGGGTKLTVLG | > 100 | 

More lines, now with the values ahead:

Row | EC50 [nM] | Emax [%] | Binder
10 | > 100 |  | Ab0405 (antibody, IgG4, V domains shown) VH: QVTLKESGPVLVKPTETLTLTCTVSGFSLNNARVGVSWIRQPPGKALEWLASIWSNDEKSYSTSLKSRLTISKDTSKSQVVLTMTNMDPVDTATYYCARSVVTGGYYYEGMDVWGQGTTVTVSS VL: SYVLTQPPSVSVAPGQTARITCGGNNIGSESVHWYQQKPGQAPVLVVDDSDRPSGIPERFSGSNSGNTATLTISRVEAGDEADYYCQVFDGNSTHVVFGGGTKLTVLG
11 | > 100 |  | Ab0406 (antibody, IgG4, V domains shown) VH: QVTLKESGPVLVKPTETLTLTCTVSGFSLNNARVGVSWIRQPPGKALEWLASIWSNDEKSYSTSLKSRLTISKDTSKSQVVLTMTNMDPVDTATYYCARSVVTGGYYYEGMDVWGQGTTVTVSS VL: CYVLTQPPSVSVAPGQTARITCGGNNIGSESVHWYQQKPGQAPVLVVDDSDRPSGIPERFSGSNSGNTATLTISRVEAGDEADYYCQVFDGNCTHVVFGGGTKLTVLG
12 | > 100 |  | Ab0403 (antibody, IgG4, V domains shown) VH: QVTLKESGPVLVKPTETLTLTCTVSGFSLNNARVGVSWIRQPPGKALEWLAWIFSNDEKSYSTSLKSRLTISKDTSKSQVVLTMTNMDPVDTATYYCARSVVTGGYYYEGMDVWGQGTTVTVSS VL: CYVLTQPPSVSVAPGQTARITCGGNNIGSESVHWYQQKPGQAPVLVVDDSDRPSGIPERFSGSNSGNTATLTISRVEAGDEADYYCQVFDGNCAHVVFGGGTKLTVLG
13 | > 100 |  | Ab0408 (antibody, IgG4, V domains shown) VH: QVTLKESGPVLVKPTETLTLTCTVSGFSLNNARVGVSWIRQPPGKALEWLAWIFSNDEKSYSTSLKSRLTISKDTSKSQVVLTMTNMDPVDTATYYCARSVVTGGYYYEGMDVWGQGTTVTVSS VL: SYVLTQPPSVSVAPGQTARITCGGNNIGSESVHWYQQKPGQAPVLVVDDSDRPSGIPERFSGSNSGNTATLTISRVEAGDEADYYCQVFDGNSTHVVFGGGTKLTVLG
14 | > 100 |  | Ab0404 (antibody, IgG4, V domains shown) VH: QVTLKESGPVLVKPTETLTLTCTVSGFSLNNARVGVSWIRQPPGKALEWLAHIWSNDEKSYSTSLKSRLTISKDTSKSQVVLTMTNMDPVDTATYYCARSVVTGGYYYEGMDVWGQGTTVTVSS VL: SYVLTQPPSVSVAPGQTARITCGGNNIGSESVHWYQQKPGQAPVLVVDDSDRPSGIPERFSGSNSGNTATLTISRVEAGDEADYYCQVFDGNSTHVVFGGGTKLTVLG
15 | > 100 |  | Ab0410 (antibody, IgG4, V domains shown) VH: QVTLKESGPVLVKPTETLTLTCTVSGFSLNNARVGVSWIRQPPGKALEWLAHIFSNDEKSYSTSLKSRLTISKDTSKSQVVLTMTNMDPVDTATYYCARSVVTGGYYYEGMDVWGQGTTVTVSS VL: SYVLTQPPSVSVAPGQTARITCGGNNIGSESVHWYQQKPGQAPVLVVDDSDRPSGIPERFSGSNSGNTATLTISRVEAGDEADYYCQVYDGNSSHVVFGGGTKLTVLG

— US20220010021A1 (Sanofi, published 2022)
